T1: human FAPα (Fibroblast activation protein alpha), cell surface expressed (human, UniProt Q12884 1-760)
T1 construct: Endogenous on human lung fibroblasts and CAFs
T1 sequence: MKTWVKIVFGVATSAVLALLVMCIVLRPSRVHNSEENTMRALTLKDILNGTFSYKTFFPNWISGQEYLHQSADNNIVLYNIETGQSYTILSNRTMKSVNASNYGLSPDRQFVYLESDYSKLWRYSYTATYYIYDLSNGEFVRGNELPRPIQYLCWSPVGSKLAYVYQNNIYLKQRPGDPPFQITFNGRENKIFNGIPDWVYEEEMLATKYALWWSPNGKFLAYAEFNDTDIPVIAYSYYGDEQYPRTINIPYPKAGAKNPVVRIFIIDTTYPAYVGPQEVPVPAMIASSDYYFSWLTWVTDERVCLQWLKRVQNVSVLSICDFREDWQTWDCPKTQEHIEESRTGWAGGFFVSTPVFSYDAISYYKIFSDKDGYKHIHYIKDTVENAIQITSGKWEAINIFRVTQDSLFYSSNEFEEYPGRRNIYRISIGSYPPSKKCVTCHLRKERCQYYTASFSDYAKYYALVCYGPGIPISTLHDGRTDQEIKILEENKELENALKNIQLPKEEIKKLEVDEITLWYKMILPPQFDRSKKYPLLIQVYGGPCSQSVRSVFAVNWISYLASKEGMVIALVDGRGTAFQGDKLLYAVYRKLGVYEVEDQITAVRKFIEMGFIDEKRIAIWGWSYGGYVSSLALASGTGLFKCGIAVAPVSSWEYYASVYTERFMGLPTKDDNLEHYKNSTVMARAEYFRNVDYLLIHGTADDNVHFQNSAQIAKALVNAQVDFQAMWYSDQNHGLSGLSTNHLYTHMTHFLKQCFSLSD

T2: cynomolgus monkey DR4 with death domain deletion on ExpiCHO-S cells (cynomolgus monkey (Macaca fascicularis))
T2 construct: also called cynomolgus DR4
T2 chain: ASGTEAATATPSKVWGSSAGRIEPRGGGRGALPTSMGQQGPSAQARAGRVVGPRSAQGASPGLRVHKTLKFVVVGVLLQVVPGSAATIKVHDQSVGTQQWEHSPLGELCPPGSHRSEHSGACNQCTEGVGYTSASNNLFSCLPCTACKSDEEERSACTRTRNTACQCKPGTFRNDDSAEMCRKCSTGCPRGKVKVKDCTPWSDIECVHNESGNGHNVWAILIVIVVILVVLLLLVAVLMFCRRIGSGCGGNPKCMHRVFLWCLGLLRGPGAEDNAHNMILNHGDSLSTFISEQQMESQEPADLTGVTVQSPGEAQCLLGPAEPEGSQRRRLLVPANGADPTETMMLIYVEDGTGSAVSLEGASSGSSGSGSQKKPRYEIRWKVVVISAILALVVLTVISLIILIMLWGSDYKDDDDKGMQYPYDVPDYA


How the values were obtained:
[1] = molecular target: T1, human FAPα (Fibroblast activation …); assay: flow cytometry, human lung fibroblasts, n = 1
Protocol: Human lung fibroblasts and CAFs (50,000 cells/well) were seeded in 96-Well round bottom plates (Greiner Bio-one, Cat #650101). Antibody dilutions were prepared using fluorescence-activated cell sorting (FACS) buffer, consisting of phosphate buffer saline (PBS, Lonza, Cat #BE17-517Q)+1% Bovine Serum Albumin (BSA, Roche, Cat #10735086001)+0.02% Sodium Azide (Bio-World, Cat #41920044-3). Plates were centrifuged, supernatant was removed, cells were resuspended in 50 μL of human Fc Block (BD, Cat #564220, diluted 1:100 in FACS buffer) and 50 μL of viability stain TO-PRO-3 Iodide (Thermo Fisher, Cat #T3605, diluted 1: 25,000 in FACS buffer), and incubated for 15 min at 4° C. Plates were washed three times with FACS buffer. Plates were centrifuged, supernatant was removed, cells were resuspended in 50 μL of antibody dilutions (concentration range 90-0.0005 μg/mL, three-fold dilution steps using FACS buffer) of BisG1-FAPα-FERL/DR4-FERR, BisG1-FAPα-FERL/b12-FERR, BisG1-b12-FERL/b12-FERR (top six concentrations only for CAFs culture) or IgG1-FAPα-FERL (top four concentrations only for CAFs culture) and incubated for 30 min at 4° C. Cells were washed three times with FACS buffer and resuspended in 50 μL of Fluorescein isothiocyanate (FITC)-labeled polyclonal antibody goat anti-mouse IgG1 (Jackson Immuno Research, Cat #109-096-097, diluted 1:100 in FACS buffer). After 30 min incubation at 4° C., cells were washed twice with FACS buffer and resuspended in FACS buffer. Antibody binding to viable cells (TO-PRO-3 negative) was analyzed by flow cytometry on a FACSCelesta™ (BD biosciences) and data were processed using FlowJo_v10.8.1 (FlowJo LLC). Geomean fluorescence intensity, gMFI, was determined and visualized using GraphPad Prism. Binding curves were analyzed using nonlinear regression analysis. The concentration (pg/mL) at which 50% of the maximal effect was observed (EC₅₀) was derived from the fitted curves.
Binding of FAPα-targeting monoclonal antibody clones, IgG1-FAPα-FEAL and IgG1-FAP5-FEAL, and bispecific antibodies carrying a binding arm derived from the two FAPα-binding clones (BisG1-FAPα-FEAL/b12-FEAR and BisG1-FAP5-FEAL/b12-FEAR) to human lung fibroblasts, which endogenously express FAPα, was compared and analyzed by flow cytometry.

[2] = molecular target: T2, cynomolgus monkey DR4 with death domain …; assay: flow cytometry, ExpiCHO-S cells expressing cynomolgus monkey DR4, n = 1
Protocol: Binding of BisG1-FAPα-FERL/DR4-FERR, BisG1-DR4-FEAL/b12-FEAR and IgG1-DR4-FERR to DR4 of various species commonly used for nonclinical toxicology studies was assessed by flow cytometry using ExpiCHO-S cells transiently expressing DR4 from different animal species. In contrast to other species, rodents only express one DR which has highest homology with human DR5. Therefore, ExpiCHO-S cells transiently expressing rat and mouse DR protein were used instead. All DR constructs lack the intracellular DD to avoid apoptosis of transfected cells upon DR(4) activation. IgG1-b12 was used as negative control.

Row | Binder | EC50 [1] | EC50 [2]
1 | BisG1-FAPα-FEAL/b12-FEAR (bispecific antibody, human IgG1, kappa, Fab-arm exchange of IgG1-FAPα-FEAL and IgG1-b12-FEAR) heavy 1: EVQLLESGGGLVQPGGSPRLSCEASGFTFSSYALSWVRQAPGKGLEWVSAISGSGGGRYYADSVKGRFTISRDNSKNTLFLQMNSLRAEDTAVYYCAKEGYSSSGTYWDHWGQGTLVTVSSASTKGPSVFPLAPSSKSTSGGTAALGCLVKDYFPEPVTVSWNSGALTSGVHTFPAVLQSSGLYSLSSVVTVPSSSLGTQTYICNVNHKPSNTKVDKRVEPKSCDKTHTCPPCPAPEFEGGPSVFLFPPKPKDTLMISRTPEVTCVVVAVSHEDPEVKFNWYVDGVEVHNAKTKPREEQYNSTYRVVSVLTVLHQDWLNGKEYKCKVSNKALPAPIEKTISKAKGQPREPQVYTLPPSREEMTKNQVSLTCLVKGFYPSDIAVEWESNGQPENNYKTTPPVLDSDGSFLLYSKLTVDKSRWQQGNVFSCSVMHEALHNHYTQKSLSLSPG light 1: AIQMTQSPSSVSASVGDRVTITCRASQGVSSWLAWYQQKPGRAPKLLIYVASTLQSGVPSRFSGSGSGTDFTLTINSLQPEDFATYYCQQANSFPPTFGQGTRLEMKRTVAAPSVFIFPPSDEQLKSGTASVVCLLNNFYPREAKVQWKVDNALQSGNSQESVTEQDSKDSTYSLSSTLTLSKADYEKHKVYACEVTHQGLSSPVTKSFNRGEC heavy 2: QVQLVQSGAEVKKPGASVKVSCQASGYRFSNFVIHWVRQAPGQRFEWMGWINPYNGNKEFSAKFQDRVTFTADTSANTAYMELRSLRSADTAVYYCARVGPYSWDDSPQDNYYMDVWGKGTTVIVSSASTKGPSVFPLAPSSKSTSGGTAALGCLVKDYFPEPVTVSWNSGALTSGVHTFPAVLQSSGLYSLSSVVTVPSSSLGTQTYICNVNHKPSNTKVDKRVEPKSCDKTHTCPPCPAPEFEGGPSVFLFPPKPKDTLMISRTPEVTCVVVAVSHEDPEVKFNWYVDGVEVHNAKTKPREEQYNSTYRVVSVLTVLHQDWLNGKEYKCKVSNKALPAPIEKTISKAKGQPREPQVYTLPPSREEMTKNQVSLTCLVKGFYPSDIAVEWESNGQPENNYKTTPPVLDSDGSFFLYSRLTVDKSRWQQGNVFSCSVMHEALHNHYTQKSLSLSPG light 2: EIVLTQSPGTLSLSPGERATFSCRSSHSIRSRRVAWYQHKPGQAPRLVIHGVSNRASGISDRFSGSGSGTDFTLTITRVEPEDFALYYCQVYGASSYTFGQGTKLERKRTVAAPSVFIFPPSDEQLKSGTASVVCLLNNFYPREAKVQWKVDNALQSGNSQESVTEQDSKDSTYSLSSTLTLSKADYEKHKVYACEVTHQGLSSPVTKSFNRGEC | 0.048 µg/mL | –
2 | IgG1-DR4-FERR (antibody, V domains shown, Bivalent monoclonal IgG1 lambda) VH: QVQLQESGPGLVKPSGTLSLTCAVSGGSISSYSWWSWIRQPPGKGLEWIGELYHSGSTNYNPSLKSRVTISVDKSKNQFSLKLRSVTAADTAVYYCVRGVATIDYWGQGTLVTVSS VL: QSALTQPPSASGSPGQSVTISCTGTSSDVGGYNFVSWYQQDPGKAPKLLIYEVTKRPSGVPDRFSGSKSGNTASLTVSGLQAEDEADYYCSSYAGSNNVMFGGGTKLTVLG | – | 2.57 µg/mL
